Source: patent publication US20140212446A1

Biological target: CD64, high affinity human FcgammaRI receptor, expressed on K562 cells (K64 cells) (human)
Test: flow cytometry of K64 cells loaded with FITC-labelled IgG2a for 1 h at 4 C, quantified with Immuno-Brite beads

antibodies bound to each cell (antibodies bound to each cell): 2000 to 6000
Substance: IgG2a-FITC-labeled antibodies (antibody)
